The text below walks through data of patent US20250326860A1 (ADAGENE PTE, published 2025).

In assay [1] the target is T1, human CD3 on cells (Jurkat cells, human T cells) (human, UniProt P07766 23-207).
T1 construct: whole, on cells
Nature of the assay: flow cytometry, human CD3+ T cells. The text has this: (§1) Human PBMCs were freshly isolated from the blood of healthy donors by density gradient centrifugation using Histopaque-1077 (Sigma). Human CD3+ T cells were further isolated from PBMCs using the Human T Cell Enrichment Kit (Stem Cell Technologies). Monkey PBMCs were isolated from a naïve cynomolgus monkey by density gradient centrifugation using Histopaque-1077 (Sigma). Monkey CD3+ T cells were isolated from PBMCs using the Pan T Cell Isolation Kit Non-Human Primate (Miltenyi Biotec). Purified human or monkey CD3+ T cells were stained with the testing antibodies as the primary antibody and the APC-labelled anti-human-Fc antibody (BioLegend) as the secondary antibody. After washing, the cells were analyzed on the CytoFLEX flow cytometer (Beckman Coulter) and the data was analyzed by FlowJo software.

In assay [2] the target is T2, cynomolgus monkey CD3 on T cells (cynomolgus monkey, UniProt Q95LI5 22-198).
T2 construct: whole, on cells
Nature of the assay: flow cytometry, monkey CD3+ T cells.
Excerpt: as §1

Assay [3] has as its target T3, human CD20 on cells (human B cells; Raji, SU-DHL-8, SU-DHL-4, A3KAW, NAMALWA) (human, UniProt P11836 1-297).
T3 construct: whole, on cells
T3 sequence (looked up): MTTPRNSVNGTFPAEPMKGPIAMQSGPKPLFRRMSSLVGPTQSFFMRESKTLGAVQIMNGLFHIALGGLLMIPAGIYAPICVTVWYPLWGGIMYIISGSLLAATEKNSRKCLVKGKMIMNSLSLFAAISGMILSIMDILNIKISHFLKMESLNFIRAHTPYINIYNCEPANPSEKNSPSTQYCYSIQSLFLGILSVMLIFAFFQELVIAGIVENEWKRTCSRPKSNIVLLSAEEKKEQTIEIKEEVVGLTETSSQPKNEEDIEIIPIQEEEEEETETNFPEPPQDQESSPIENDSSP
Nature of the assay: flow cytometry, Raji cells. On the procedure: (§2) Raji, SU-DHL-8, SU-DHL-4, A3KAW and NAMALWA were B-cell lymphoma cell lines with various CD20 expression levels on cell surface. Briefly, the test antibodies were serial diluted and were incubated with the tumor cells on ice. After washing, the cells were subsequently incubated with the APC-labelled anti-human-Fc secondary antibody (BioLegend) on ice. The cells were then washed with PBS prior to analysis by the CytoFLEX flow cytometer (Beckman Coulter). The data was analyzed by FlowJo software.

In assay [4] the target is T3, human CD20 on cells (human B cells; …). Nature of the assay: flow cytometry, A3KAW cells. The procedure:
as §2

For assay [5] the target is unchanged. Nature of the assay: flow cytometry, human B cells. The text has this: (§3) Human and monkey PBMCs were isolated as mentioned above. Human B cells were further isolated from PBMCs using the EasySep™ Human B Cell Isolation Kit (Stem Cell Technologies). Monkey B cells were isolated from PBMCs using the Non-Human B Primate Cell Isolation Kit (Stem Cell Technologies). Purified human or monkey B cells were stained with the testing antibodies as the primary antibody and the APC-labelled anti-human-Fc antibody (BioLegend) as the secondary antibody. After washing, the cells were analyzed on the CytoFLEX flow cytometer (Beckman Coulter) and the data was analyzed by FlowJo software.

Assay [6] has the same target. Nature of the assay: flow cytometry, NAMALWA cells. On the procedure:
as §2

Assay [7] has as its target T4, cynomolgus monkey CD20 on B cells (cynomolgus monkey, UniProt M4ZHZ6 1-297).
T4 construct: whole, on cells
T4 sequence: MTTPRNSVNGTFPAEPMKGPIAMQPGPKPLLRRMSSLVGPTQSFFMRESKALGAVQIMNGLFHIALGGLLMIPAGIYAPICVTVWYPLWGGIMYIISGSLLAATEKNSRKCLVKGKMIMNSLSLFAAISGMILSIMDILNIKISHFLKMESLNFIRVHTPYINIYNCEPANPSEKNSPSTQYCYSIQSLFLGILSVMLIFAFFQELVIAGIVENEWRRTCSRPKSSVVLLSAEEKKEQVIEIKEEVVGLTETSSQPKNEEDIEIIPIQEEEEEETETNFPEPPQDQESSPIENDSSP
Nature of the assay: flow cytometry, monkey B cells.
Excerpt: as §3

For assay [8], the target named is T3, human CD20 on cells (human B cells; …). Nature of the assay: flow cytometry, SU-DHL-4 cells. On the procedure: as §2
For assay [9] the target is unchanged. Nature of the assay: flow cytometry, SU-DHL-8 cells. The procedure: as §2
Assay [10] has as its target T1, human CD3 on cells (Jurkat cells, human …). Nature of the assay: cell-based or functional assay.

T1 sequence (P07766 23-207): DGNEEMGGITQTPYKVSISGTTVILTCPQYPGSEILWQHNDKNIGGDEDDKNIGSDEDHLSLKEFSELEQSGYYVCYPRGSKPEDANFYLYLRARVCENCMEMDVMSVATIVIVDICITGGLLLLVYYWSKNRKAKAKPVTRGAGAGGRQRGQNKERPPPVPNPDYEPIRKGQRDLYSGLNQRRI
T2 sequence (Q95LI5 22-198): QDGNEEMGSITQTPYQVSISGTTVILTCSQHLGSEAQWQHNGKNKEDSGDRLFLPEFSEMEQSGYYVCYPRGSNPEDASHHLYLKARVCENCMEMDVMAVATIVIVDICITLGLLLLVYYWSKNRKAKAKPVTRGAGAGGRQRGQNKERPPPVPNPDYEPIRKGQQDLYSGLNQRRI

B1: TY25715 (bispecific antibody, human IgG1, kappa, N297A)
light: QIVLSQSPAILSASPGEKVTMTCRASSSVSYIHWFQQKPGKSPKPWIYATSNLASGVPVRFSGSGSGTSYSLTISRVEAEDAATYYCQQWTSNPPTFGGGTKVEIKRTVAAPSVFIFPPSDEQLKSGTASVVCLLNNFYPREAKVQWKVDNALQSGNSQESVTEQDSKDSTYSLSSTLTLSKADYEKHKVYACEVTHQGLSSPVTKSFNRGEC
heavy: EVQLVQSGAEVKKPGSSVKVSCKASGYTFTSYNMHWVRQAPGKGLEWIGAIYPGSGDTSYNQKFKGRVTITADKSTSTAYMELSSLRSEDTAVYYCARSTYYGGDWYFNVWGQGTLVTVSSASTKGPSVFPLAPSSKSTSGGTAALGCLVKDYFPEPVTVSWNSGALTSGVHTFPAVLQSSGLYSLSSVVTVPSSSLGTQTYICNVNHKPSNTKVDKKVEPKSCDKTHTCPPCPAPELLGGPSVFLFPPKPKDTLMISRTPEVTCVVVDVSHEDPEVKFNWYVDGVEVHNAKTKPREEQYASTYRVVSVLTVLHQDWLNGKEYKCKVSNKALPAPIEKTISKAKGQPREPQVYTLPPSRKKLTKNQVKLTCLVKGFYPSDIAVEWESNGQPENNYKTTPPVLDCDGSFFLYSKLTVDKSRWQQGNVFSCSVMHEALHNHYTQKSLSLSPGK
chain: EAVVTQEPSLTVSPGGTVTLTCGSSTGAVTTSNYPNWVQQKPGQAPRGLIGGTNKRAPGTPARFSGSLLGGKAALTLSGAQPEDEAEYYCALWYSDLWVFGGGTKLTVLGGGGSGGGGSGGGGSGGGGSEVQLVESGGGLVQPGGSLRLSCAASGFTFSTYAINWVRQAPGKGLEWVSRIRSKYNNYATYYAESVKDRFTISRDDSKNTLYLQINSLRAEDTAVYYCVRHGNFGTSYVSWFAYWGQGTLVTVSSEPKSSDKTHTCPPCPAPELLGGPSVFLFPPKPKDTLMISRTPEVTCVVVDVSHEDPEVKFNWYVDGVEVHNAKTKPREEQYASTYRVVSVLTVLHQDWLNGKEYKCKVSNKALPAPIEKTISKAKGQPREPQVYTDPPSRDELTKNQVSLTCLVDGFYPSDIAVEWESNGQPENCYKTTPPVLDSDGSFFLYSKLTVDKSRWQQGNVFSCSVMHEALHNHYTQDSLSLSPGK
notes: also called parental CD20xCD3 bispecific antibody of TY25716
As to B1, in assay [1], the EC50 turned out to be 28.8 nM and the “max MFI” value is 2260 MFI. For the same molecule, in assay [2], the EC50 amounted to 20.7 nM and the “max MFI” value was found to be 1120 MFI.

B2: TY25716 (bispecific antibody, human IgG1, kappa, N297A)
light: QIVLSQSPAILSASPGEKVTMTCRASSSVSYIHWFQQKPGKSPKPWIYATSNLASGVPVRFSGSGSGTSYSLTISRVEAEDAATYYCQQWTSNPPTFGGGTKVEIKRTVAAPSVFIFPPSDEQLKSGTASVVCLLNNFYPREAKVQWKVDNALQSGNSQESVTEQDSKDSTYSLSSTLTLSKADYEKHKVYACEVTHQGLSSPVTKSFNRGEC
heavy: EVQLVQSGAEVKKPGSSVKVSCKASGYTFTSYNMHWVRQAPGKGLEWIGAIYPGSGDTSYNQKFKGRVTITADKSTSTAYMELSSLRSEDTAVYYCARSTYYGGDWYFNVWGQGTLVTVSSASTKGPSVFPLAPSSKSTSGGTAALGCLVKDYFPEPVTVSWNSGALTSGVHTFPAVLQSSGLYSLSSVVTVPSSSLGTQTYICNVNHKPSNTKVDKKVEPKSCDKTHTCPPCPAPELLGGPSVFLFPPKPKDTLMISRTPEVTCVVVDVSHEDPEVKFNWYVDGVEVHNAKTKPREEQYASTYRVVSVLTVLHQDWLNGKEYKCKVSNKALPAPIEKTISKAKGQPREPQVYTLPPSRKKLTKNQVKLTCLVKGFYPSDIAVEWESNGQPENNYKTTPPVLDCDGSFFLYSKLTVDKSRWQQGNVFSCSVMHEALHNHYTQKSLSLSPGK
chain: EVGSYPYDDPDCPSHESDCDQGGGPLGLAGGSEAVVTQEPSLTVSPGGTVTLTCGSSTGAVTTSNYPNWVQQKPGQAPRGLIGGTNKRAPGTPARFSGSLLGGKAALTLSGAQPEDEAEYYCALWYSDLWVFGGGTKLTVLGGGGSGGGGSGGGGSGGGGSEVQLVESGGGLVQPGGSLRLSCAASGFTFSTYAINWVRQAPGKGLEWVSRIRSKYNNYATYYAESVKDRFTISRDDSKNTLYLQINSLRAEDTAVYYCVRHGNFGTSYVSWFAYWGQGTLVTVSSEPKSSDKTHTCPPCPAPELLGGPSVFLFPPKPKDTLMISRTPEVTCVVVDVSHEDPEVKFNWYVDGVEVHNAKTKPREEQYASTYRVVSVLTVLHQDWLNGKEYKCKVSNKALPAPIEKTISKAKGQPREPQVYTDPPSRDELTKNQVSLTCLVDGFYPSDIAVEWESNGQPENCYKTTPPVLDSDGSFFLYSKLTVDKSRWQQGNVFSCSVMHEALHNHYTQDSLSLSPGK
With B2, the concentration giving a half-maximal response (EC50) in [3] was 28 nM; in assay [4], 220 nM; in assay [5], 14.5 nM; in assay [6], 162 nM; in assay [7] it was 13.5 nM; in [8] it was 14.6 nM. The molecule further displayed an EC50 in assay [9] of 37.2 nM. Moreover, the “Max MFI” value was found to be 23500 MFI in assay [3]; 967000 MFI in [4]; 647000 MFI in assay [6]; 2.48e+06 MFI in [8]; 5280 MFI in assay [9]. Further, the “max MFI” value in [5] stood at 50000 MFI; in [7], 28100 MFI.

B3: TY23118 (antibody)
light: EVGSYDADDPDCPADNNHCHYSGRSAGGGGTPLGLAGSGGSQAVVTQEPSLTVSPGGTVTLTCGSSTGAVTTSNYANWVQQKPGQAPRGLIGGTNKRAPGVPARFSGSLLGGKAALTLSGAQPEDEAEYYCALWYSNLWVFGGGTKLTVLRTVAAPSVFIFPPSDEQLKSGTASVVCLLNNFYPREAKVQWKVDNALQSGNSQESVTEQDSKDSTYSLSSTLTLSKADYEKHKVYACEVTHQGLSSPVTKSFNRGEC
heavy: not shown
Take B3: in assay [10], the “Jurkat NFAT reporter assay EC50” value is 7.9 nM and the “Masking efficiency (Jurkat NFAT reporter assay)” value (“Masking efficiency” below) turned out to be 419 fold.

B4: TY23110 (antibody)
light: EVGSYAPHDPDCPADPPSCYPSGRSAGGGGTPLGLAGSGGSQAVVTQEPSLTVSPGGTVTLTCGSSTGAVTTSNYANWVQQKPGQAPRGLIGGTNKRAPGVPARFSGSLLGGKAALTLSGAQPEDEAEYYCALWYSNLWVFGGGTKLTVLRTVAAPSVFIFPPSDEQLKSGTASVVCLLNNFYPREAKVQWKVDNALQSGNSQESVTEQDSKDSTYSLSSTLTLSKADYEKHKVYACEVTHQGLSSPVTKSFNRGEC
heavy: not shown
B4: in assay [10], the “Jurkat NFAT reporter assay EC50” value is 3.6 nM and the “Masking efficiency” value is 191 fold.

B5: TY23115 (antibody)
light: EVGSYPYDDPDCPSHDSDCDNSGRSAGGGGTPLGLAGSGGSQAVVTQEPSLTVSPGGTVTLTCGSSTGAVTTSNYANWVQQKPGQAPRGLIGGTNKRAPGVPARFSGSLLGGKAALTLSGAQPEDEAEYYCALWYSNLWVFGGGTKLTVLRTVAAPSVFIFPPSDEQLKSGTASVVCLLNNFYPREAKVQWKVDNALQSGNSQESVTEQDSKDSTYSLSSTLTLSKADYEKHKVYACEVTHQGLSSPVTKSFNRGEC
heavy: not shown
For B5, in [10], the “Jurkat NFAT reporter assay EC50” value was 7.7 nM and the “Masking efficiency” value was found to be 409 fold.
